Key:
Assay in all cases: SPR, antibody captured, C2 as analyte;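 further: biacore SPR at 37 °C, anti-C2 mAbs captured via goat anti-human IgG on CM5 chips, double-referenced sensorgrams fit to a 1:1 kinetic or steady-state model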
human C2 S278A = biological target: T1, human C2 S278A (human, UniProt P06681 21-752)
T1 sequence: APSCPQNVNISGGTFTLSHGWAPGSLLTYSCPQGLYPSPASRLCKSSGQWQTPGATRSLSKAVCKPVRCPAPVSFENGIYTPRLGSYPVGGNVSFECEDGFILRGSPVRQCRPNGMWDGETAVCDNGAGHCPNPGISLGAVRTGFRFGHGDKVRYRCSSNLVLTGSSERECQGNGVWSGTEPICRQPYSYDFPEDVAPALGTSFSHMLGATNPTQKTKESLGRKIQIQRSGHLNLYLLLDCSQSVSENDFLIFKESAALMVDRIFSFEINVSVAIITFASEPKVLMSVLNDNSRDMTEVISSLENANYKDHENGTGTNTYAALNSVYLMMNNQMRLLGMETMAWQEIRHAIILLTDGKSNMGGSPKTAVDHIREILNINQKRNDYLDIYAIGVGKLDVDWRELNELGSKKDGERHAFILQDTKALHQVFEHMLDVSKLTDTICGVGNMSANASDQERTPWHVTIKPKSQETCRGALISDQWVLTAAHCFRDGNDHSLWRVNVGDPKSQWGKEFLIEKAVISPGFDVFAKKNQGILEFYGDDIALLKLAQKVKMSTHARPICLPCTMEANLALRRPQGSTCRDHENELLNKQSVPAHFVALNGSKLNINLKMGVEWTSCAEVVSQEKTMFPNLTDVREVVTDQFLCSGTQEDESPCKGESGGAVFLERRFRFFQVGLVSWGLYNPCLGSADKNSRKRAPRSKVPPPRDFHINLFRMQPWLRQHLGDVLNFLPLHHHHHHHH

human C2 G677A = biological target: T2, human C2 G677A (human, UniProt P06681 21-752)
T2 sequence: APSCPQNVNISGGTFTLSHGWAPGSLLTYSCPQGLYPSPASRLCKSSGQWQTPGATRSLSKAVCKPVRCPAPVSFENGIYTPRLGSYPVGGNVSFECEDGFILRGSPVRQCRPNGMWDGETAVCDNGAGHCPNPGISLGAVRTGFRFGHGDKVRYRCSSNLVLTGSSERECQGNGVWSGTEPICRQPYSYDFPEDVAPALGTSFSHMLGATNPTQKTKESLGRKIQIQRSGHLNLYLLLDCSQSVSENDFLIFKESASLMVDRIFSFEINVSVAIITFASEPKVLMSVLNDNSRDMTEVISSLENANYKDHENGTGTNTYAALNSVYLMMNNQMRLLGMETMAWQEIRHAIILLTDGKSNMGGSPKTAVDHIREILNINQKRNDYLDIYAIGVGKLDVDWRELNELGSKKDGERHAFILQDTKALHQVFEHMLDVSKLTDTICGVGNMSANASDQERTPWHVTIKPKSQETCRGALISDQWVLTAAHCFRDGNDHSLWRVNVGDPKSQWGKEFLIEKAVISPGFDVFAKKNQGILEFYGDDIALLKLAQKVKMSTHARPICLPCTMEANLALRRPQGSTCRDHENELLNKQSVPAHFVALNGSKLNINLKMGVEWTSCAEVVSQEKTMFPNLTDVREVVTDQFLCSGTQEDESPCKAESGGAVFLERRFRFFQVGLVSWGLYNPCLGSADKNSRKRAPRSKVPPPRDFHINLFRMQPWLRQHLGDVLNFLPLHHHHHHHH

human C2 E267A = biological target: T3, human C2 E267A (human, UniProt P06681 21-752)
T3 sequence: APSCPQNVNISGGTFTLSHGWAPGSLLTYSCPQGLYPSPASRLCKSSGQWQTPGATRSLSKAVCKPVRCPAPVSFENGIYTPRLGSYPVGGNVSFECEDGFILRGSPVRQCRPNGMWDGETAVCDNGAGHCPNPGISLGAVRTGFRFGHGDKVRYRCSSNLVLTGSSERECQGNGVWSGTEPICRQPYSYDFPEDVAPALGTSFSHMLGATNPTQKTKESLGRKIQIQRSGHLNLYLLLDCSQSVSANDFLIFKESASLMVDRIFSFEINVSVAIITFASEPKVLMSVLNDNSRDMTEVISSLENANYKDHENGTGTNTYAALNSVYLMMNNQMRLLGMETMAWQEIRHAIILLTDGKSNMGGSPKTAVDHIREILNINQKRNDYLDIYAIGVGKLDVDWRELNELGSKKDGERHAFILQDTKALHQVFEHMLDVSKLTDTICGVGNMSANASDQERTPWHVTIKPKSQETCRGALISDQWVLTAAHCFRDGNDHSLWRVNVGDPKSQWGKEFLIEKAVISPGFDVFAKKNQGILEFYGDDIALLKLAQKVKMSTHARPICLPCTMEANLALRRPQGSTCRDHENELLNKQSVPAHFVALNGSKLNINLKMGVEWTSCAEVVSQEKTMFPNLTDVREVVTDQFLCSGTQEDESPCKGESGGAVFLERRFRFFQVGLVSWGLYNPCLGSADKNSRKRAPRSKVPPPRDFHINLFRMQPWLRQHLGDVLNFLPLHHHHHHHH

human C2 Q489A = biological target: T4, human C2 Q489A (human, UniProt P06681 21-752)
T4 sequence: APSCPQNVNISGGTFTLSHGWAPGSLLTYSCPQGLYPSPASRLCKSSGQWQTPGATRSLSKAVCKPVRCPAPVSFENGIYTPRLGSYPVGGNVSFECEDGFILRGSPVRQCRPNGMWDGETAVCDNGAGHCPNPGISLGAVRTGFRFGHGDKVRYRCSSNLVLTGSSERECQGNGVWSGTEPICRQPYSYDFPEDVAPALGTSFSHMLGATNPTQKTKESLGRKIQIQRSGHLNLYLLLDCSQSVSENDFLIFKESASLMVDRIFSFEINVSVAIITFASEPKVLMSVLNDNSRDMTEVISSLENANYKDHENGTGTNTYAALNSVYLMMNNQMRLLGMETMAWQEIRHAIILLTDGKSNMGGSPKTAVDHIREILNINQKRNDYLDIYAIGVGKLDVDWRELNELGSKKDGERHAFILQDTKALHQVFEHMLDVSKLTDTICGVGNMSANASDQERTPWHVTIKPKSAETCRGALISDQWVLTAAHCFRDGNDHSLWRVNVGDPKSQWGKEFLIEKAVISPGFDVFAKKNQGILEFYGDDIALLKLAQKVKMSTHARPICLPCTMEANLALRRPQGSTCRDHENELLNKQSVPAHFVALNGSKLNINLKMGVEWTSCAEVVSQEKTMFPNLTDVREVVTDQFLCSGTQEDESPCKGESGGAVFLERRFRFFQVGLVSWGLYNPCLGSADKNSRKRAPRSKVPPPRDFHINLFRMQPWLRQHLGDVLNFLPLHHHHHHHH

B1: RF16-226 (antibody, human IgG4 S228P, lambda)
heavy: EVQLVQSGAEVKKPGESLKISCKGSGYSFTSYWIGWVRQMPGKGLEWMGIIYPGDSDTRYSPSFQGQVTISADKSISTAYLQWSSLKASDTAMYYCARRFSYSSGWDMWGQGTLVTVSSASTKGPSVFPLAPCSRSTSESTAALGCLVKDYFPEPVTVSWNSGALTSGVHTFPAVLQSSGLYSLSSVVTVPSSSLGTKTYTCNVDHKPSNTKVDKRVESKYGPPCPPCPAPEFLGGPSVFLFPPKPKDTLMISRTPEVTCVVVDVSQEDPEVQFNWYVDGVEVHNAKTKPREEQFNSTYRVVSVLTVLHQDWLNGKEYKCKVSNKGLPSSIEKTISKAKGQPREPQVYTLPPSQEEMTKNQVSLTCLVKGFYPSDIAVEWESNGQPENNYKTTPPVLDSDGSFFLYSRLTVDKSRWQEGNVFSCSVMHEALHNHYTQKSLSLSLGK
light: SYELTQPPSVSVSPGQTARITCSGDALTSKYVAWYQQKSGLAPLLVIYEDTRRPSGIPAKFSGSSSGSVATLTISGAHGDDEADYYCYSTDASGHQRVFGGGTKLTVLSQPKAAPSVTLFPPSSEELQANKATLVCLISDFYPGAVTVAWKADGSPVKAGVETTKPSKQSNNKYAASSYLSLTPEQWKSHRSYSCQVTHEGSTVEKTVAPTECS
notes: pH-dependent anti-C2 antibody from a phage display library; also called WT
Kd (human C2 S278A): 9.4 nM
Kd (human C2 G677A): 8.7 nM
Kd (human C2 E267A): 11.2 nM
Kd (human C2 Q489A): 104 nM
